Experimental data from the supplement of paper PMC10567573.

B1: RAD51 (parent)
chain: RFLRMLLRLADEFGVAVVITNQVV
B2: BCL2L13 (parent)
chain: QSLDQEILLKVKTEIEEELKSLDK

Variants of: B1
Assay: protein stability index of a GFP-peptide fusion (GPS, HEK-293T) (PSI 1-6); higher = more stable
Settings: c terminus: a fixed tail appended
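Note: lentivirally expressed fusions sorted by FACS into six bins by GFP to DsRed ratio, PSI derived from sequencing read proportions per bin multiplied by bin number.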

Row | Variant | protein stability index
1 | RFLRMLLRLADEFGVAVVITNQVR [V24R] | 2.55
2 | RFLRMLLRLADEFGVAVVITNQVC [V24C] | 2.11
3 | RFLRMLLRLADEFGVAVVITNQVI [V24I] | 3.73
4 | RFLRMLLRLADEFGVAVVITNQVY [V24Y] | 1.6
5 | RFLRMLLRLADEFGVAVVITNQVD [V24D] | 2.48
6 | RFLRMLLRLADEFGVAVVITNQVM [V24M] | 2.4
7 | RFLRMLLRLADEFGVAVVITNQVE [V24E] | 1.41
8 | RFLRMLLRLADEFGVAVVITNQVH [V24H] | 3.01
9 | RFLRMLLRLADEFGVAVVITNQVP [V24P] | 2.06
10 | RFLRMLLRLADEFGVAVVITNQVS [V24S] | 1.44
11 | RFLRMLLRLADEFGVAVVITNQVG [V24G] | 2.11
12 | RFLRMLLRLADEFGVAVVITNQVF [V24F] | 2.68
13 | RFLRMLLRLADEFGVAVVITNQVN [V24N] | 1.86
14 | RFLRMLLRLADEFGVAVVITNQVT [V24T] | 1.83
15 | RFLRMLLRLADEFGVAVVITNQVL [V24L] | 2.03
16 | RFLRMLLRLADEFGVAVVITNQVW [V24W] | 1.25
17 | RFLRMLLRLADEFGVAVVITNQVQ [V24Q] | 2.83
18 | RFLRMLLRLADEFGVAVVITNQVK [V24K] | 1.45
19 | RFLRMLLRLADEFGVAVVITNQVA [V24A] | 1.89

Row | Variant | protein stability index
20 | RFLRMLLRLADEFGVAVVITNDVV [Q22D] | 1.65
21 | RFLRMLLRLADEFGVAVVITNIVV [Q22I] | 1.43
22 | RFLRMLLRLADEFGVAVVITNLVV [Q22L] | 1.68
23 | RFLRMLLRLADEFGVAVVITNCVV [Q22C] | 2.3
24 | RFLRMLLRLADEFGVAVVITNGVV [Q22G] | 2.92
25 | RFLRMLLRLADEFGVAVVITNEVV [Q22E] | 3.17
26 | RFLRMLLRLADEFGVAVVITNVVV [Q22V] | 2.24
27 | RFLRMLLRLADEFGVAVVITNSVV [Q22S] | 2.47
28 | RFLRMLLRLADEFGVAVVITNPVV [Q22P] | 1.99
29 | RFLRMLLRLADEFGVAVVITNTVV [Q22T] | 1.44
30 | RFLRMLLRLADEFGVAVVITNKVV [Q22K] | 1.39
31 | RFLRMLLRLADEFGVAVVITNAVV [Q22A] | 1.52
32 | RFLRMLLRLADEFGVAVVITNFVV [Q22F] | 1.29
33 | RFLRMLLRLADEFGVAVVITNHVV [Q22H] | 1.9
34 | RFLRMLLRLADEFGVAVVITNRVV [Q22R] | 2.08
35 | RFLRMLLRLADEFGVAVVITNYVV [Q22Y] | 2.77
36 | RFLRMLLRLADEFGVAVVITNNVV [Q22N] | 1.85
37 | RFLRMLLRLADEFGVAVVITNMVV [Q22M] | 1.65
38 | RFLRMLLRLADEFGVAVVITPQVV [N21P] | 1.7

Row | Variant | protein stability index
39 | RFLRMLLRLADEFGVAVVITEQVV [N21E] | 1.08
40 | RFLRMLLRLADEFGVAVVITFQVV [N21F] | 2.06
41 | RFLRMLLRLADEFGVAVVITYQVV [N21Y] | 2.19
42 | RFLRMLLRLADEFGVAVVITTQVV [N21T] | 2.02
43 | RFLRMLLRLADEFGVAVVITQQVV [N21Q] | 1.9
44 | RFLRMLLRLADEFGVAVVITKQVV [N21K] | 2.3
45 | RFLRMLLRLADEFGVAVVITLQVV [N21L] | 1.97
46 | RFLRMLLRLADEFGVAVVITWQVV [N21W] | 1.76
47 | RFLRMLLRLADEFGVAVVITSQVV [N21S] | 1.19
48 | RFLRMLLRLADEFGVAVVITHQVV [N21H] | 1.43
49 | RFLRMLLRLADEFGVAVVITMQVV [N21M] | 4.31
50 | RFLRMLLRLADEFGVAVVITDQVV [N21D] | 4.17
51 | RFLRMLLRLADEFGVAVVITGQVV [N21G] | 3.1
52 | RFLRMLLRLADEFGVAVVITVQVV [N21V] | 2.43
53 | RFLRMLLRLADEFGVAVVITRQVV [N21R] | 1.68
54 | RFLRMLLRLADEFGVAVVITIQVV [N21I] | 1.43
55 | RFLRMLLRLADEFGVAVVITCQVV [N21C] | 1.32
56 | RFLRMLLRLADEFGVAVVITAQVV [N21A] | 2.52

Variants of: B2
Assay: as above
Settings: c terminus: a fixed tail appended

Row | Variant | protein stability index
57 | DSLDQEILLKVKTEIEEELKSLDK [Q1D] | 4.78
58 | ESLDQEILLKVKTEIEEELKSLDK [Q1E] | 4.67
59 | CSLDQEILLKVKTEIEEELKSLDK [Q1C] | 4.3
60 | GSLDQEILLKVKTEIEEELKSLDK [Q1G] | 4.67
61 | HSLDQEILLKVKTEIEEELKSLDK [Q1H] | 4.92
62 | KSLDQEILLKVKTEIEEELKSLDK [Q1K] | 4.38
63 | FSLDQEILLKVKTEIEEELKSLDK [Q1F] | 3.89
64 | TSLDQEILLKVKTEIEEELKSLDK [Q1T] | 4.6
65 | RSLDQEILLKVKTEIEEELKSLDK [Q1R] | 4.64
66 | WSLDQEILLKVKTEIEEELKSLDK [Q1W] | 3.55
67 | MSLDQEILLKVKTEIEEELKSLDK [Q1M] | 4.16
68 | VSLDQEILLKVKTEIEEELKSLDK [Q1V] | 3.97
69 | SSLDQEILLKVKTEIEEELKSLDK [Q1S] | 4.54
70 | ISLDQEILLKVKTEIEEELKSLDK [Q1I] | 3.44
71 | NSLDQEILLKVKTEIEEELKSLDK [Q1N] | 4.98
72 | ASLDQEILLKVKTEIEEELKSLDK [Q1A] | 5.04
73 | YSLDQEILLKVKTEIEEELKSLDK [Q1Y] | 3.69
74 | LSLDQEILLKVKTEIEEELKSLDK [Q1L] | 3.7
75 | QVLDQEILLKVKTEIEEELKSLDK [S2V] | 4.16

Row | Variant | protein stability index
76 | QKLDQEILLKVKTEIEEELKSLDK [S2K] | 4.24
77 | QWLDQEILLKVKTEIEEELKSLDK [S2W] | 1.48
78 | QGLDQEILLKVKTEIEEELKSLDK [S2G] | 3.38
79 | QHLDQEILLKVKTEIEEELKSLDK [S2H] | 4.75
80 | QRLDQEILLKVKTEIEEELKSLDK [S2R] | 4.49
81 | QTLDQEILLKVKTEIEEELKSLDK [S2T] | 5.16
82 | QYLDQEILLKVKTEIEEELKSLDK [S2Y] | 4
83 | QNLDQEILLKVKTEIEEELKSLDK [S2N] | 4.92
84 | QQLDQEILLKVKTEIEEELKSLDK [S2Q] | 4.97
85 | QCLDQEILLKVKTEIEEELKSLDK [S2C] | 4.09
86 | QFLDQEILLKVKTEIEEELKSLDK [S2F] | 4.24
87 | QLLDQEILLKVKTEIEEELKSLDK [S2L] | 3.95
88 | QELDQEILLKVKTEIEEELKSLDK [S2E] | 5.52
89 | QILDQEILLKVKTEIEEELKSLDK [S2I] | 4.91
90 | QMLDQEILLKVKTEIEEELKSLDK [S2M] | 4.2
91 | QPLDQEILLKVKTEIEEELKSLDK [S2P] | 4.71
92 | QSCDQEILLKVKTEIEEELKSLDK [L3C] | 4.97
93 | QSDDQEILLKVKTEIEEELKSLDK [L3D] | 5.72
94 | QSADQEILLKVKTEIEEELKSLDK [L3A] | 5.71
